According to patent US20250236651A1:

How the values were obtained:
[1] = target: native Bovine Collagen Type I (Thermo Fisher) (bovine) (UniProt P02453)
[2] = target: FIB3COL1 (Fibroin-III/Collagen Type-I fusion protein) (Araneus diadematus; human)
[3] = target: SPIDICOL1 (Spidroin-I/Collagen Type-I fusion protein) (Nephila clavipes; human)
[4] = target: FIB3COL1 (Fibroin-III/Collagen Type-I fusion protein) (Araneus diadematus; human); remark: listed apart in the source
[5] = target: SPIDICOL1 (Spidroin-I/Collagen Type-I fusion protein) (Nephila clavipes; human); remark: listed apart in the source

degradation of the electrospun scaffold (mass over time) [1] [h]	degradation of the electrospun scaffold (mass over time) [2] [h]	degradation of the electrospun scaffold (mass over time) [3] [h]	hydroxylysine content (amino acid analysis) [4] [fold]	hydroxylysine content (amino acid analysis) [5] [fold]	Molecule
64	100	96	–	–	collagenase (enzyme)
–	–	–	39	36	Lysin Hydroxylase 3 (LH3), exogenous human (enzyme) SDRPRGRDPVNPEKLLVITVATAETEGYLRFLRSAEFFNYTVRTLGLGEEWRGGDVARTVGGGQKVRWLKKEMEKYADREDMIIMFVDSYDVILAGSPTELLKKFVQSGSRLLFSAESFCWPEWGLAEQYPEVGTGKRFLNSGGFIGFATTIHQIVRQWKYKDDDDDQLFYTRLYLDPGLREKLSLNLDHKSRIFQNLNGALDEVVLKFDRNRVRIRNVAYDTLPIVVHGNGPTKLQLNYTYPEHERELGNYVPNGWTPEGGCGFCNQDRRTLPGGQPPPRVFLAVFVEQPTPFLPRFLQRLLLLDYPPDRVTLFLHNNEVFHEPHIADSWPQLQDHFSAVKLVGPEEALSPGEARDMAMDLCRQDPECEFYFSLDADAVLTNLQTLRILIEENRKVIAPMLSRHGKLWSNFWGALSPDEYYARSEDYVELVQRKRVGVWNVPYISQAYVIRGDTLRMELPQRDVFSGSDTDPDMAFCKSFRDKGIFLHLSNQHEFGRLLATSRYDTEHLHPDLWQIFDNPVDWKEQYIHENYSRALEGEGIVEQPCPDVYWFPLLSEQMCDELVAEMEHYGQWSGGRHEDSRLAGGYENVPTVDIHMKQVGYEDQWLQLLRTYVGPMTESLFPGYHTKARAVMNFVVRYRPDEQPSLRPHHDSSTFTLNVALNHKGLDYEGGGCRFLRYDCVISSPRKGWALLHPGRLTHYHEGLPTTWGTRYIMVSFVDP
